Data as given in the supplement of paper PMC12042874.
± gives the uncertainty stated by the source.

Test: amyloid nucleation score (Sup35N fusion, yeast selection) (log enrichment); library NNK2; higher = more nucleation; inactive = no reads after selection
How it was run: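 Libraries of peptides of 20 random codons fused to Sup35N were expressed in psi-negative yeast and induced 24 hours with 100 μM copper sulfate. Selection was 7 days at 30°C on medium lacking adenine and uracil, and plasmid inserts were Illumina-sequenced before and after selection. Nucleation score is the DiMSum log enrichment of output over input reads, centred on the mode score of non-aggregating sequences, and sequences with under 100 input reads were left out.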

Substance | amyloid nucleation score
SCDIKCWCQ | 3.41 ± 0.079
SCFTLSFKVITLHSRLQFIW | 0.181 ± 0.35
SCIMECM | -0.108 ± 1.1
SCLYSSRPSMLGTIYRRMRC | 0.163 ± 0.34
SCNPRKNGSQCCGMNLSLSV | 0.808 ± 0.8
SCSRWHYESSYLYIDTLEDY | 0.347 ± 0.55
SCSVCWSLSMV | 1.31 ± 0.36
SCSWLLSEIGCESVEIRRTV | 5.51 ± 0.082
SCYLALKFTFRLFVLKSEGL | -0.202 ± 1
SDDLCHCIFGVVPGKSFPTM | inactive
SDGQGHYVIQRTLWVTWSFR | -0.707 ± 0.76
SDGVNIMK | 2.83 ± 0.18
SDINRVVGLPRTRLALRSKR | -0.447 ± 0.54
SDLSKKSLLKVLMAS | -0.375 ± 1.1
SDPKLFCAIKAGNTQLGVES | 0.634 ± 0.54
SDRQHNAYNFLFVL | 4.6 ± 0.051
SDTGGSVYMKTVGRTHLTYD | -0.252 ± 0.25
SEAKGYLIWGFLWLFGYDFE | -0.802 ± 0.63
SECFRLSLRKGCNTNQVRNT | -0.989 ± 0.63
SEENYGRYLAMEVYNYSQAL | inactive
SEFYIRLQYNNVVIVDLFEV | -0.701 ± 0.63
SERTLNLRSKSSPHPCST | 3.86 ± 0.12
SETYTLIRARYIMV | -1.24 ± 0.75
SEWSTYLCSSNI | inactive
SEYALYAFE | -0.173 ± 0.25

Substance | amyloid nucleation score
SFAHEDWHTLFLL | -1.32 ± 0.75
SFAIIS | 0.077 ± 0.65
SFCMPGISLFLVFRQTDGHM | inactive
SFDTCRSLIRLYHVPPRTVL | -0.276 ± 0.61
SFFPS | -0.301 ± 0.45
SFFVIGW | 0.102 ± 0.17
SFINVLDQRVILRPPTRVFV | 0.494 ± 0.65
SFIVRRFSSCLHLFGDSEGY | -0.098 ± 0.41
SFLMCGHWIACALTMMVMFQ | 0.896 ± 0.58
SFLRSTSRDPKGCVKMRYFT | 1.17 ± 0.2
SFNDESGFLLSSGYPISFKR | inactive
SFNRS | 0.87 ± 0.31
SFRLISRVLRCNMIQ | -0.881 ± 0.37
SFRSMIQQSAAGFYSSFIST | -1.89 ± 1.1
SFSRSGFCHMCSLSALTGLR | -0.196 ± 1.1
SFVDMSYRFLVGVRFLVRPS | inactive
SFVTCCVSCGWRGQIHAEKL | 6.78 ± 0.073
SFWLTMMCNVGTMALVLSNL | -0.065 ± 0.31
SGEGRLLVRWALVKVTEEKL | 0.907 ± 0.58
SGGHKWVYFASCISFLRPWR | -0.069 ± 0.55
SGIADEMGSRLTRKLVNRFY | -0.466 ± 0.55
SGRCNSN | -0.63 ± 0.79
SGSGNLFA | -0.545 ± 0.45
SGSVLFGRVYRRRFLFWVVD | inactive
SGTRYYPSWIFGFLVVCKG | -0.404 ± 0.64

Substance | amyloid nucleation score
SGVKLYRLRRLCLFSRGKFA | 4.09 ± 0.12
SGVWSSKSLYGKRGNSWIVV | 0.053 ± 0.23
SGYQGKYRSMSPRFKFSWVG | -0.392 ± 0.63
SHCCFLG | 0.118 ± 0.51
SHFCVVCEYTLVSSYHR | 5.09 ± 0.09
SHGCGHRL | -0.051 ± 0.79
SHLCQVLVVLGGASTV | 6.41 ± 0.077
SHLKMDNPCLGF | -0.121 ± 0.25
SHQWLRRLPWVI | 0.528 ± 0.44
SHRFADILDCV | 0.518 ± 0.24
SHTITSGWCAGWIGFSPICR | 0.932 ± 0.32
SIARHFRGFV | 0.734 ± 0.47
SIAWRLEFIVDDGVLFRCKS | -0.563 ± 0.35
SIFFNRASCLRRV | inactive
SIFHGWARWKGFG | -0.258 ± 0.48
SIFSKYCF | -0.464 ± 0.5
SIGVSDGNPGRAVGGGLMGH | 0.098 ± 0.49
SIKVRMGEARVMNLVNTLGV | inactive
SILGGVKSLRNIKLFSVWLA | -0.569 ± 0.79
SILGVCSRLSYVRSVTFQGV | 0.998 ± 0.61
SILLYKFK | 1.54 ± 0.12
SIPSCCWSLMGFNIIELDDG | 0.173 ± 1.1
SIRSLMGVRSKNSYCRLTVR | 0.011 ± 0.79
SISAKFSSTSWGGG | 6.444 ± 0.046
SISGHSWTKCVRVHYALIYG | 1.07 ± 0.38

Substance | amyloid nucleation score
SISSLLLRLRGTV | -0.305 ± 0.79
SISVKGLSGRLTVRYLLILV | -0.669 ± 1
SISWVVYSTV | 2.1 ± 0.084
SITAIYESLNRRRNLKFKYC | inactive
SIVLSDGLGS | 0.044 ± 1.1
SKARGLCFLSVLLFISDQST | -1.78 ± 1.1
SKCWESREQGYMYMEWGFEG | 0.219 ± 1
SKEVAAGCSLGIRVVMFKR | inactive
SKFDLYAKFMIRINRLFVLW | -1.59 ± 0.41
SKGSGICRRISTEYDGVGQS | 0.6 ± 0.42
SLADS | -0.802 ± 0.63
SLAQDVRGYGLCNGKTNIVW | -0.867 ± 0.35
SLATSAWVVYLWFVVRDIVV | 0.388 ± 0.33
SLAWARISGVVAICTVGRGF | 7.44 ± 0.032
SLCEFMREGCLLTYWFNKCE | -0.838 ± 0.64
SLCGRRFNTDEPLLETRSSL | 0.817 ± 0.51
SLDGGPAVVEEATFRGSMAF | -0.567 ± 1.1
SLELA | 0.472 ± 0.8
SLETFNVTPCRDVT | -0.633 ± 1.1
SLFYPLFLMLGVAYEGSFSW | -1.1 ± 0.61
SLFYVTLAPTSWICGTARC | 1.43 ± 0.41
SLISKEFVGLVGGET | -0.388 ± 0.25
SLKCDCYFSTGHI | inactive
SLKEIECFSQ | inactive
SLLGLNFCSMLAIL | 3.23 ± 0.075

Substance | amyloid nucleation score
SLLNTGRYCWC | 1.05 ± 0.35
SLLTCLSGMHGWVSIT | -0.13 ± 0.27
SLMIHGHLFRIRVRSLRGRI | -0.714 ± 0.76
SLNAL | -0.296 ± 0.49
SLNFFIMSKSSTGVSSFLYV | 6.483 ± 0.038
SLNNIRLLTHYLDFGVRNLA | 3.04 ± 0.092
SLPAENSFIEF | -1.25 ± 0.39
SLQSDQSADFREDKGRSKAE | 0.898 ± 0.32
SLSCGLYGYMTNSCSYVHRT | 4.22 ± 0.053
SLSLQGLSFMPFCGRSGSVV | inactive
SLSRRQLTIPPVTTRVIQSH | 0.637 ± 0.25
SLTMYGSIEWLNNVSAILRH | 0.541 ± 0.66
SLTYRYVHVLC | 5.86 ± 0.04
SLWVYLVKMVEIFSLKD | -0.531 ± 0.55
SLYFVWSCLLGILKVMPTFN | -1.18 ± 0.64
SMKNK | 0.185 ± 0.4
SMLLVAFWWKGGWTRISPCQ | 0.762 ± 0.23
SMQLDSFCVICGWFALVGLV | 6.67 ± 0.052
SMSSTSFSQWSMAWLEGRMA | 2.93 ± 0.078
SMSYDRWKAKS | -0.446 ± 0.48
SMYSYHHSYRSDTKTSNFFW | 3.4 ± 0.072
SNCRLGKGYYNCF | -0.833 ± 0.41
SNCSKCVKVYTSPCLWSLCG | 3.46 ± 0.083
SNCYLKRSYGFRDIITKIRY | 1.24 ± 0.14
SNEIQNII | 0.57 ± 0.81

Substance | amyloid nucleation score
SNGVAWQCNGNSYRIFCDTS | 7.522 ± 0.069
SNLMISTCEQMGRCVGDDAV | -0.067 ± 0.36
SNLNPVHSDLLMYEMPCNLT | -0.492 ± 1.1
SNMNNPRHLCAKLSKRQMSY | inactive
SNNFFNGMICSLFAGGC | 7.55 ± 0.082
SNRLRVVQ | -0.069 ± 0.32
SNVRWKRGYGDNTILGGSLT | 1.51 ± 0.31
SNYLAPYNNSDATYCG | -0.361 ± 0.54
SNYSPGFLCWALESSTNM | -0.99 ± 1.1
SPAWRNGDPRKKATPTHTGI | 0.004 ± 1.1
SPDRPPSVVVVDRSGDVMVC | 1.57 ± 0.15
SPLASYIAVLWGNVR | -0.515 ± 1.1
SPLRALLTHVWRKQHTYFSN | 3.14 ± 0.08
SPVICRVRGGLFINMSEYNV | inactive
SPVVKFRLLQSINLTHCY | 4.47 ± 0.05
SPWVNYYPSRVYRNVNACLF | -0.339 ± 0.35
SQCARKYVVASVSMLTDVTH | 1.13 ± 0.31
SQHSRHRRQSVVYYAVDGVE | 1.21 ± 0.31
SQMSGSFRRSNGWIAV | inactive
SQNETFFKMCVELN | 0.165 ± 0.54
SQRLIRWNCLNAGTIMPSVV | 0.089 ± 1.1
SQVERVQFTGIRKWYGAGRS | 4.57 ± 0.072
SQVTISHSNEHMVGACAVYR | -0.456 ± 0.54
SQWSCVRTSFGPPMYKWFDL | 5.655 ± 0.045
SRAAPDINS | 0.251 ± 0.25

Substance | amyloid nucleation score
SRACVLWKGLRRAANTC | 0.984 ± 0.27
SRCEVNTWLLILSGGITPMN | 0.722 ± 0.37
SRDVLVLIGYFSCGVIDSAL | 5.16 ± 0.082
SREVFDVLGKFFCSPQDRVV | 0.294 ± 0.8
SRFIAWSFT | -0.038 ± 1.1
SRFVLRFSRGLEGRTSSDMR | 0.294 ± 0.42
SRICIFDDCNRRLARYWGLR | 0.057 ± 0.76
SRIFVLYYSWDAWNSWGDVV | 0.602 ± 0.6
SRIGLYIKCVVLDWRELNLS | 0.206 ± 0.55
SRKFSFAYFTRFFYVLVLIV | inactive
SRKNRSRVSTTISR | -0.731 ± 0.3
SRKPNQINNRSRNSMLGARR | -0.162 ± 0.27
SRKTIVGFYGVPGVRYACIW | inactive
SRLNNLRYLYYLTGFRSLMT | inactive
SRMAWYFLLGYHLMMEKVHL | inactive
SRMRVLFALLQDFQSHVGSV | 1.36 ± 0.11
SRNFVPVHRCVGGF | inactive
SRQRVMLLC | inactive
SRTRCDIWFNLRTFMVRVRK | -0.46 ± 1.1
SRVTYMRATDSMTTVVFWGV | 5.31 ± 0.064
